Read-outs that look alike come from different tables or passages of the source.
Tests used:
[1] = target: Env (gp120) of HIV-1 strain T257-31 (HIV-1)
[2] = target: Env (gp120) of HIV-1 strain AC10.0.29 (HIV-1)
[3] = target: Env (gp120) of HIV-1 strain REJO4541.67 (HIV-1)
[4] = target: Env (gp120) of HIV-1 strain 0815.v3.c3 (HIV-1)
[5] = target: Env (gp120) of HIV-1 strain 703357.C02 (HIV-1)
[6] = target: Env (gp120) of HIV-1 strain 6545.v4.c1 (HIV-1)
[7] = target: Env (gp120) of HIV-1 strain 6480.v4.c25 (HIV-1)
[8] = target: Env (gp120) of HIV-1 strain Q769.d22 (HIV-1)
[9] = target: Env (gp120) of HIV-1 strain ZM249M.PL1 (HIV-1)
[10] = target: Env (gp120) of HIV-1 strain CNE30 (HIV-1)
[11] = target: Env (gp120) of HIV-1 strain Du156.12 (HIV-1)
[12] = target: Env (gp120) of HIV-1 strain 928-28 (HIV-1)
[13] = target: Env (gp120) of HIV-1 strain CNE58 (HIV-1)
[14] = target: Env (gp120) of HIV-1 strain ZM53M.PB12 (HIV-1)
[15] = target: Env (gp120) of HIV-1 strain R1166.c01 (HIV-1)
[16] = target: Env (gp120) of HIV-1 strain QH0692.42 (HIV-1)
[17] = target: Env (gp120) of HIV-1 strain THRO4156.18 (HIV-1)
[18] = target: Env (gp120) of HIV-1 strain CNE21 (HIV-1)
[19] = target: Env (gp120) of HIV-1 strain Q842.d12 (HIV-1)
[20] = target: Env (gp120) of HIV-1 strain PVO.4 (HIV-1)
[21] = target: Env (gp120) of HIV-1 strain C3347.c11 (HIV-1)
[22] = target: Env (gp120) of HIV-1 strain 1054_07_TC4_1499 (HIV-1)
[23] = target: Env (gp120) of HIV-1 strain ZM233M.PB6 (HIV-1)
[24] = target: Env (gp120) of HIV-1 strain 3103.v3.c10 (HIV-1)
[25] = target: Env (gp120) of HIV-1 strain 6535.3 (HIV-1)
[26] = target: Env (gp120) of HIV-1 strain Ce2010_F5 (HIV-1)
[27] = target: Env (gp120) of HIV-1 strain 231966.c02 (HIV-1)
[28] = target: Env (gp120) of HIV-1 strain X2131_C1_B5 (HIV-1)
[29] = target: Env (gp120) of HIV-1 strain T251-18 (HIV-1)
[30] = target: Env (gp120) of HIV-1 strain CNE53 (HIV-1)
[31] = target: Env (gp120) of HIV-1 strain ZM197M.PB7 (HIV-1)
[32] = target: Env (gp120) of HIV-1 strain 1006_11_C3_1601 (HIV-1)
[33] = target: Env (gp120) of HIV-1 strain 3817.v2.c59 (HIV-1)
[34] = target: Env (gp120) of HIV-1 strain Du422.1 (HIV-1)
[35] = target: Env (gp120) of HIV-1 strain TRJO4551.58 (HIV-1)
[36] = target: Env (gp120) of HIV-1 strain ZM135M.PL10a (HIV-1)
[37] = target: Env (gp120) of HIV-1 strain ZM109F.PB4 (HIV-1)
[38] = target: Env (gp120) of HIV-1 strain ZM214M.PL15 (HIV-1)
[39] = target: Env (gp120) of HIV-1 strain Ce0393_C3 (HIV-1)
[40] = target: Env (gp120) of HIV-1 strain 3301.v1.c24 (HIV-1)
[41] = target: Env (gp120) of HIV-1 strain Ce1176_A3 (HIV-1)
[42] = target: Env (gp120) of HIV-1 strain 3415.v1.c1 (HIV-1)
[43] = target: Env (gp120) of HIV-1 strain Q259.d2.17 (HIV-1)
[44] = target: Env (gp120) of HIV-1 strain R2184.c04 (HIV-1)
[45] = target: Env (gp120) of HIV-1 strain TRO.11 (HIV-1)
[46] = target: Env (gp120) of HIV-1 strain CAP210.2.00.E8 (HIV-1)
[47] = target: Env (gp120) of HIV-1 strain CAP45.2.00.G3 (HIV-1)
[48] = target: Env (gp120) of HIV-1 strain TRO.11 (HIV-1); remark: listed apart in the source
[49] = target: Env (gp120) of HIV-1 strain AC10.0.29 (HIV-1); remark: listed apart in the source
[50] = target: Env (gp120) of HIV-1 strain SC422661.8 (HIV-1)

Substance: NIH45-46 IgG (antibody)
- neutralization IC50 [1]: 0.49 µg/mL
- neutralization IC50 [2]: 0.56 µg/mL
- neutralization IC50 [3]: 0.014 µg/mL
- neutralization IC50 [4]: 0.014 µg/mL
- neutralization IC50 [5]: 19.2 µg/mL
- neutralization IC50 [6]: > 50 µg/mL
- neutralization IC50 [7]: 0.032 µg/mL
- neutralization IC50 [8]: 0.009 µg/mL
- neutralization IC50 [9]: 0.017 µg/mL
- neutralization IC50 [10]: 0.309 µg/mL
- neutralization IC50 [11]: 0.02 µg/mL
- neutralization IC50 [12]: 0.23 µg/mL
- neutralization IC50 [13]: 0.43 µg/mL
- neutralization IC50 [14]: 0.175 µg/mL
- neutralization IC50 [15]: 0.31 µg/mL
- neutralization IC50 [16]: 0.72 µg/mL
- neutralization IC50 [17]: 1.91 µg/mL
- neutralization IC50 [18]: 6.01 µg/mL
- neutralization IC50 [19]: 0.031 µg/mL
- neutralization IC50 [20]: 0.12 µg/mL
- neutralization IC50 [21]: 0.029 µg/mL
- neutralization IC50 [22]: 0.113 µg/mL
- neutralization IC50 [23]: 2.5 µg/mL
- neutralization IC50 [24]: 1.77 µg/mL
- neutralization IC50 [25]: 0.23 µg/mL
- neutralization IC50 [26]: 0.101 µg/mL
- neutralization IC50 [27]: 1.64 µg/mL
- neutralization IC50 [28]: 0.23 µg/mL
- neutralization IC50 [29]: 1.35 µg/mL
- neutralization IC50 [30]: 0.008 µg/mL
- neutralization IC50 [31]: 0.15 µg/mL
- neutralization IC50 [32]: 0.027 µg/mL
- neutralization IC50 [33]: > 50 µg/mL
- neutralization IC50 [34]: > 50 µg/mL
- neutralization IC50 [35]: 0.04 µg/mL
- neutralization IC50 [36]: 0.59 µg/mL
- neutralization IC50 [37]: 0.095 µg/mL
- neutralization IC50 [38]: 0.17 µg/mL
- neutralization IC50 [39]: 0.334 µg/mL
- neutralization IC50 [40]: 0.009 µg/mL
- neutralization IC50 [41]: 0.93 µg/mL
- neutralization IC50 [42]: 0.022 µg/mL
- neutralization IC50 [43]: 0.043 µg/mL
- neutralization IC50 [44]: 0.034 µg/mL
- neutralization IC50 [45]: 1.61 µg/mL
- neutralization IC50 [46]: > 50 µg/mL
- neutralization IC50 [47]: > 50 µg/mL
- neutralization IC50 [48]: 1 µg/mL

Substance: NIH45-46^G54F IgG (antibody)
- neutralization IC50 [1]: 0.17 µg/mL
- neutralization IC50 [2]: 0.24 µg/mL
- neutralization IC50 [3]: 0.007 µg/mL
- neutralization IC50 [4]: < 0.001 µg/mL
- neutralization IC50 [5]: 7.91 µg/mL
- neutralization IC50 [6]: > 50 µg/mL
- neutralization IC50 [7]: 0.014 µg/mL
- neutralization IC50 [8]: 0.005 µg/mL
- neutralization IC50 [9]: 0.004 µg/mL
- neutralization IC50 [10]: 0.1 µg/mL
- neutralization IC50 [11]: < 0.001 µg/mL
- neutralization IC50 [12]: 0.11 µg/mL
- neutralization IC50 [13]: 0.04 µg/mL
- neutralization IC50 [14]: 0.08 µg/mL
- neutralization IC50 [15]: 0.4 µg/mL
- neutralization IC50 [16]: 0.56 µg/mL
- neutralization IC50 [17]: 0.89 µg/mL
- neutralization IC50 [18]: 0.12 µg/mL
- neutralization IC50 [19]: 0.011 µg/mL
- neutralization IC50 [20]: 0.07 µg/mL
- neutralization IC50 [21]: 0.015 µg/mL
- neutralization IC50 [22]: 0.076 µg/mL
- neutralization IC50 [23]: 0.22 µg/mL
- neutralization IC50 [24]: 0.37 µg/mL
- neutralization IC50 [25]: 0.07 µg/mL
- neutralization IC50 [26]: 0.046 µg/mL
- neutralization IC50 [27]: 0.06 µg/mL
- neutralization IC50 [28]: 0.1 µg/mL
- neutralization IC50 [29]: 0.41 µg/mL
- neutralization IC50 [30]: 0.005 µg/mL
- neutralization IC50 [31]: 0.09 µg/mL
- neutralization IC50 [32]: 0.003 µg/mL
- neutralization IC50 [33]: > 50 µg/mL
- neutralization IC50 [34]: > 50 µg/mL
- neutralization IC50 [35]: 0.03 µg/mL
- neutralization IC50 [36]: 0.13 µg/mL
- neutralization IC50 [37]: 0.022 µg/mL
- neutralization IC50 [38]: 0.09 µg/mL
- neutralization IC50 [39]: 0.04 µg/mL
- neutralization IC50 [40]: 0.001 µg/mL
- neutralization IC50 [41]: 0.24 µg/mL
- neutralization IC50 [42]: < 0.001 µg/mL
- neutralization IC50 [43]: 0.009 µg/mL
- neutralization IC50 [44]: 0.015 µg/mL
- neutralization IC50 [45]: 0.11 µg/mL
- neutralization IC50 [49]: 0.3 µg/mL
- neutralization IC50 [50]: 0.02 µg/mL
- neutralization IC50 [46]: > 50 µg/mL
- neutralization IC50 [47]: > 50 µg/mL
- neutralization IC50 [48]: 0.08 µg/mL
